How the values were obtained:
ASF/SF2 (Homo sapiens) = ASF/SF2 (Homo sapiens) (UniProt Q07955); settings: cited from earlier work
[1] = molecular target: Cp183 dimer (HBV core protein, free dimer) (Hepatitis B virus) (UniProt P03147); assay: SEC; 5.3 µM Cp183 dimer alone or mixed with 11.2 µM SRPKΔ in disassembly buffer, dialysed overnight against reassembly buffer (0.25 M NaCl, 10 mM DTT, 20 mM Tris-HCl pH 7.4); Superose 6; fractions by SDS-PAGE
UniProt P03147, sequence (P03147 whole entry): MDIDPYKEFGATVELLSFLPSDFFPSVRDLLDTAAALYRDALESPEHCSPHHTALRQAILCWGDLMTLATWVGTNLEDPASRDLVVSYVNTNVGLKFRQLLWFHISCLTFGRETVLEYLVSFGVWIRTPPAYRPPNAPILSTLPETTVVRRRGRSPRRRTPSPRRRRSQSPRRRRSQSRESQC

UniProt Q07955, sequence (Q07955 2-248): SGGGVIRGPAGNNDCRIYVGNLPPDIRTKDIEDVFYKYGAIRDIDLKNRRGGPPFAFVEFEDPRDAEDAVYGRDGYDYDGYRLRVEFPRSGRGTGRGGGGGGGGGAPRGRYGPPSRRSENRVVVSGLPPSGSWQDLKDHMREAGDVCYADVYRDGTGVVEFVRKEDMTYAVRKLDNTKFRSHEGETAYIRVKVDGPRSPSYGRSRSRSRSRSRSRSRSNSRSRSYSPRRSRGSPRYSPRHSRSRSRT

| Substance | Kd (ASF/SF2 (Homo sapiens)) [nM] | stoichiometry N (SRPKΔ per Cp183 dimer) [1] |
| --- | --- | --- |
| SRPK1 (from UniProt Q96SB4) | 50 |  |
| SRPK1ΔN1S1 (truncated Serine Arginine protein kinase 1) (from UniProt Q96SB4 1-655) (enzyme) |  | > 1 |

Source: publication PMC3219723
